Experimental data taken from patent publication US20100273722.
No end group written: not given here.

Assays:
[1] = sedimentation equilibrium AUC, self-association, 25 C
[2] = sedimentation equilibrium AUC, self-association, 5 C
[3] = sedimentation equilibrium AUC, self-association, 10 C
[4] = sedimentation equilibrium AUC, self-association, 15 C
[5] = sedimentation equilibrium AUC, self-association, 20 C
[6] = sedimentation equilibrium AUC, self-association, 30 C

Protein: GPSQPTAPGDDAPVEDLIRFYDNLRQYLNVVTRHRY-NH2 [aPP^Y7AQ25R]
- % monomer at 30 µM [1]: 78%

Protein: GPSQPTAPGDDASPEDLIRFYDNLQQYLNVVTRHRY-NH2 [aPP^Y7AP13SV14P]
- % monomer at 30 micromolar total peptide [2]: 74%
- % monomer at 30 micromolar total peptide [3]: 82%
- % monomer at 30 micromolar total peptide [4]: 84%
- % monomer at 30 micromolar total peptide [5]: 90%
- % monomer at 30 micromolar total peptide [1]: 90%
- % monomer at 30 micromolar total peptide [6]: 98%

Protein: GPSQPEAPGDDAPVEDLIRFYDNLQQYLNVVTRHRY-NH2 [aPP^Y7AT6E]
- % monomer at 30 µM [1]: 79%

Protein: GPSQPTAPGDDAPVEDLIRFYDNLQQYLNVVTRHRY-NH2 [aPP^Y7A]
- % monomer at 30 µM [1]: 98%

Protein: GPSQPTAPGDDAVPEDLIRFYDNLQQYLNVVTRHRY-NH2 [aPP^Y7AP13VV14P]
- % monomer at 30 µM [1]: 90%

Protein: GPSQPTYPGDDAPVEDLIRFADNLQQYLNVVTRHRY-NH2 [aPP^Y21A]
- % monomer at 30 µM [1]: 14%

Protein: GPSQPTYPGDDAPVEDLIRFYDNLQQYLNVVTRHRY (ends and bridges not checked) [avian pancreatic polypeptide (aPP)]
- % monomer at 30 µM [1]: 23%

Protein: GPSQPTYPGDDAPVEDLIRAYDNLQQYLNVVTRHRY-NH2 [aPP^F20A]
- % monomer at 30 µM [1]: 100%
